{
  "source": "patent US8008542B2",
  "about": "“Compositions, cells, and plants that include BKI1, a negative regulator of BRI1-mediated BR signaling” (The Salk Institute for Biological Studies, priority 2007, dated 2011)",
  "key": {"[1]": {"molecular_target": "T1, BRI1 kinase (Arabidopsis thaliana, UniProt O22476)", "T1 construct": "The intracellular domain of BRI1(BRI1-KD) was cloned into pETBlue2 (Novagen) with a C-terminal His tag; made in house; host or cells: E. coli BL21 (DE3) Codon plus RIL", "T1 sequence (O22476 883-1158 limits assumed)": "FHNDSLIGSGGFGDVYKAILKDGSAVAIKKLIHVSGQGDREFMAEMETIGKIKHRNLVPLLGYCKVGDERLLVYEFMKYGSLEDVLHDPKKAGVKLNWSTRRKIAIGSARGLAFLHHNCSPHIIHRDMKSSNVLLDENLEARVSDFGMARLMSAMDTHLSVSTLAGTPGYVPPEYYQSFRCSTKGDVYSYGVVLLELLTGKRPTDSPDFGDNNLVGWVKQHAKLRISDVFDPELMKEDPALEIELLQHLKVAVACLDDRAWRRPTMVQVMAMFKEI", "test": "In vitro phosphorylation of MBP-BKI1 by BRI1 kinase", "assay_type": "biochemical", "conditions": "MBP-BKI1, BRI1-KD-HIS, 200 μM ATP; read-out: Km as substrate of BRI1 kinase in vitro", "description": "The intracellular domain of BRI1(BRI1-KD) was cloned into pETBlue2 (Novagen) with a C-terminal His tag. BKI1 was cloned into the pMAL-2cX vector (New England Biolabs) resulting in an Nterminal maltose-binding protein (MBP) fusion. BRI1-KD-HIS and MBP-BKI1 fusion proteins were expressed in BL21 (DE3) Codon plus RIL (Stratagene) and purified with Ni-NTA agarose (Qiagen) and […] (New England Biolabs), respectively. For the phosphorylation assays, each reaction contained 50 mM HEPES [pH7.4], 10 mM MgCl2, 10 mM MnCl2, 1 mM DTT, 200 μM ATP, 1 μl (10 μCi) [γ-32P] ATP, 0.5 μl of BRI1-His, different amounts of MBP-BKI1, and double deionized H2O in a final volume of 24 μl. Reactions were terminated by addition of 8 μl of 4×SDS loading buffer. Samples were separated on a 4-20% Tris-Glycine SDS-PAGE gel (Invitrogen), which was then stained, destained, dried, and visualized and quantified using a PhosphorImager. The kinetic analysis of the phosphorylation of MBP-BKI1 by BRI1 kinase was conducted with a GraphPad Prism 4 (http://www.graphpad.com/prism/Prism.htm). […] The BKI1-FLAG protein was detected by immunoblot analysis with anti-FLAG antibody."}, "[2]": {"molecular_target": "T2, intracellular domain of BRI1 (BRI1-KD) (Arabidopsis thaliana, UniProt O22476)", "T2 construct": "expressed in transfected cells; host or cells: yeast strain MaV203", "T2 sequence (O22476 828-1196)": "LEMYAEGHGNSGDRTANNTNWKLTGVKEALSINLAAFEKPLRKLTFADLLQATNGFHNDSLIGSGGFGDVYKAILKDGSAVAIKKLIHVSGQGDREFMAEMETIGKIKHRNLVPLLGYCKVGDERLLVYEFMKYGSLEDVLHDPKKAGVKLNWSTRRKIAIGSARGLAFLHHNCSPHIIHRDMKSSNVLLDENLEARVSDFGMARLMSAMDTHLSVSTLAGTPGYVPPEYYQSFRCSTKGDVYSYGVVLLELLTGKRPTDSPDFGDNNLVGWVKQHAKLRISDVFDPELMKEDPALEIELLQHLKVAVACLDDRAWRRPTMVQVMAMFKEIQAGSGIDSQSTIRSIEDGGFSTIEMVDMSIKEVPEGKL", "test": "Yeast two-hybrid interaction with BRI1-KD", "assay_type": "binding", "protocol": "(§2) A ProQuest Two-Hybrid system with Gateway technology (Invitrogen) was used. […] The full-length (BKI1-FL), and various truncated proteins, 1-252 (BKI1-ΔCT1), 1-299 (BKI1-ΔCT2), and 253-337 (BKI1-CT) of BKI1 were cloned into the pEXPAD502 vector. The kinase domain of NIK1 (NIK1-KD) (Fontes et al. (2004) Genes Dev. 18:2545), BAK1 (BAK1-KD), CLV1 (CLV1-KD), BRL1 (BRL1-KD), BRL3 (BRL3-KD), full length TTL, and full-length BIN2 were cloned into the pDBLeu vector. Interactions were tested on SD medium minus Leu, Trp, and His, and containing 25 mM 3-Amino-1,2,4-Triazole (3AT), using the yeast strain MaV203 according to the manufacturer's manual."}, "[3]": {"molecular_target": "T3, BAK1 (Arabidopsis thaliana, UniProt Q94F62)", "T3 construct": "kinase domains of other receptor-like kinases tested, including BAK1 and NIK1; expressed in transfected cells; host or cells: yeast strain MaV203", "T3 sequence (Q94F62 289-576 limits assumed)": "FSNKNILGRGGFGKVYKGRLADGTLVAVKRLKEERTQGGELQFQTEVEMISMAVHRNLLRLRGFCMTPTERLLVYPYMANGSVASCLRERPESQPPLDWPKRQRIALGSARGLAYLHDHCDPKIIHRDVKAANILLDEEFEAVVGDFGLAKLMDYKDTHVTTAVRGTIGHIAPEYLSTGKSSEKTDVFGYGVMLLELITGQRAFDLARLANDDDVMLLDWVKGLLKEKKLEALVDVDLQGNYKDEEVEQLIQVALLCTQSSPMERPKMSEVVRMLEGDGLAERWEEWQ", "test": "Yeast two-hybrid interaction with BAK1-KD", "assay_type": "binding", "protocol": "as §2"}, "[4]": {"molecular_target": "T4, CLV1 (Arabidopsis thaliana, UniProt Q9SYQ8)", "T4 construct": "expressed in transfected cells; host or cells: yeast strain MaV203", "T4 sequence (Q9SYQ8 692-968 limits assumed)": "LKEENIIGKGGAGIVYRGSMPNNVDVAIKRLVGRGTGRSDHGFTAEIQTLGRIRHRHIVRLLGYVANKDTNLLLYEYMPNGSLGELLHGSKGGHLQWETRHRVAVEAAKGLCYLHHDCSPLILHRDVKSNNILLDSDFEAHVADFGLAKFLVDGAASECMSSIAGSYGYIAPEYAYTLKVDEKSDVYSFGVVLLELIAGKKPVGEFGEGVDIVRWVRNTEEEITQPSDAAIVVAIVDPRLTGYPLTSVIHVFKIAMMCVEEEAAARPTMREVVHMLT", "test": "Yeast two-hybrid interaction with CLV1-KD", "assay_type": "binding", "description": "(§1) BKI1 fused with GAL4-AD (BKI1-pEXAD502) interacts with the intracellular domain of BRI1 (BRI1-KD), but not CLV1 (CLV1-KD), BRL1 (BRL1-KD), and BRL3 (BRL3-KD), fused with GAL4-DB (in pDBLeu) in yeast. pDBLeu was used as a negative control. Each spot from left to right contains 10 μl yeast cell culture with OD600=0.2, 0.04, 0.008, and 0.0016."}, "[5]": {"molecular_target": "T5, BRL3 (Arabidopsis thaliana, UniProt Q9LJF3)", "T5 construct": "expressed in transfected cells; host or cells: yeast strain MaV203", "T5 sequence (Q9LJF3 858-1136 limits assumed)": "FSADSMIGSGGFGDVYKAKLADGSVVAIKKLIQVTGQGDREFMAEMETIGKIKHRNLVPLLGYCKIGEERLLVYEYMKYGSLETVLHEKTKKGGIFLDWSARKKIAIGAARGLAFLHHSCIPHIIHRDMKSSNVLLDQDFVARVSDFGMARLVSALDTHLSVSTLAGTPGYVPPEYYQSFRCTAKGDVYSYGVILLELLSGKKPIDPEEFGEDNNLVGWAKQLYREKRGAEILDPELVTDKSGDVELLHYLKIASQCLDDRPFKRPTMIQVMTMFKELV", "test": "Yeast two-hybrid interaction with BRL3-KD", "assay_type": "binding", "description": "as §1"}},
  "data": [
    {"molecule": "BKI1: BRI1-interacting protein of 337 amino acids, negative regulator of brassinosteroid signaling (SEQ ID NO:1) (protein, listed as Arabidopsis thaliana) METNLQQVKNSSQTFSEKQNPKQEASPSPISSTCSSPSHDFSFTISLQPLSSSSKHISPTLRSPSKTTSSYQQTDPFAVDLSPADEIFFHGHLLPLHLLSHLPVSPRTSTGSYNDGFTLPVKDILPDQPTNNNNNTENAITNISTEAKDDNTEDKAEGEIRVKTKPIKSFSLFGLSKWRKGFESNEREQEQQQQKIKKPMSLDLSHAVKKYIRMLFQKRGNGTQFWNRRQTSSYSFSSSLMGPNGNSKTMINGSYNKRDLIRGRRGELFSAPASMRTSPTNSGHLRVSTAGLSSSSGSTSSSSSDSTMEELQAAIQAAIAHCKNSSAVDRDDKVKDS", "values": [
      {"measurement": "Km", "setting": "[1]", "value": "~1.55", "unit": "µM"},
      {"measurement": "interaction with kinase domain of BRI1 in yeast", "setting": "[2]", "value": "associated specifically"},
      {"measurement": "interaction with kinase domain of BAK1 in yeast", "setting": "[3]", "value": "not"},
      {"measurement": "interaction with kinase domain of CLV1 in yeast", "setting": "[4]", "value": "does not interact"},
      {"measurement": "interaction with kinase domain of BRL3 in yeast", "setting": "[5]", "value": "does not interact"}
    ]}
  ]
}
